Results on ten sequences are retold here after the supplement of paper PMC10724198.

In series [1] the test system is Saccharomyces cerevisiae. In words: protein stability index of tFT-peptide fusion (C-terminal peptide) (PSI (0-1 scale)); higher = more stable (slower turnover). On the procedure:
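MPS profiling in S. cerevisiae of the tFT-X12 degron library: putative degron peptides plus stable controls, 12 aa, fused to the C-terminus of a sfGFP-mCherry timer. Cells are FACS-sorted into 8 mCherry/sfGFP bins and deep-sequenced. PSI runs from 0 (unstable) to 1 (stable). Backgrounds are wild type, das1Δ and doa10Δ at 30 °C, and wild type, das1Δ, cdc34-1 and cdc53-1 at 37 °C; 2-3 technical replicates each.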

In series [2] the test system is Saccharomyces cerevisiae. The description is as above. Particulars: genetic background: wild type; temperature: 30 C.
Where [3] appears, read: genetic background: cdc34-1, temperature: 37 C.
[4] abbreviates: genetic background: cdc53-1, temperature: 37 C.
The mark [5] stands for this setting: genetic background: das1 deletion, temperature: 30 C.
Setting [6] is: genetic background: das1 deletion, temperature: 37 C.
[7] abbreviates: genetic background: doa10 deletion, temperature: 30 C.
The mark [8] stands for this setting: genetic background: wild type, temperature: 30 C.
Where [9] appears, read: genetic background: wild type, temperature: 37 C.

± gives the standard deviation of the averaged measurements.
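Also: PSI is a weighted mean of sequencing reads over stability bins, variants kept only with over 10 reads, mCherry proximal and sfGFP distal, peptide attached via GGGS linker.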

TYSVIPSLALLP: the protein stability index in the series on Saccharomyces cerevisiae [1] (setting [3]) was 0.664 ± 0.03; in the series with Saccharomyces cerevisiae [1] (setting [4]) it was 0.727 ± 0.013; in the series with Saccharomyces cerevisiae [1] (setting [5]), 0.643 ± 0.014; in the series with Saccharomyces cerevisiae [1] (setting [6]) it was 0.7298 ± 0.0043; in the series with Saccharomyces cerevisiae [1] (setting [7]), 0.648 ± 0.012; with Saccharomyces cerevisiae [1] (setting [8]), 0.652 ± 0.032. Moreover, the values for the protein stability index in the series on Saccharomyces cerevisiae [1] (setting [9]) and in the series with Saccharomyces cerevisiae [2] were 0.704 ± 0.022 and 0.224 ± 0.051, respectively.
For the sequence VAGGFWCWGMVG, the protein stability index with Saccharomyces cerevisiae [1] (setting [3]) is 0.718 ± 0.034; in the series on Saccharomyces cerevisiae [1] (setting [4]) it was 0.782 ± 0.015; with Saccharomyces cerevisiae [1] (setting [5]) it was 0.663 ± 0.0093; in the series with Saccharomyces cerevisiae [1] (setting [6]) it was 0.788 ± 0.013; in the series on Saccharomyces cerevisiae [1] (setting [7]), 0.392 ± 0.016; with Saccharomyces cerevisiae [1] (setting [8]) it was 0.436 ± 0.024. Moreover, the protein stability index in the series on Saccharomyces cerevisiae [1] (setting [9]) is 0.677 ± 0.024; in the series on Saccharomyces cerevisiae [2], 0.4642 ± 0.0023.
Regarding VARWVYALGLLC, the protein stability index came out at 0.581 ± 0.035 in the series with Saccharomyces cerevisiae [1] (setting [3]); 0.6488 ± 0.0027 with Saccharomyces cerevisiae [1] (setting [4]); 0.545 ± 0.028 in the series on Saccharomyces cerevisiae [1] (setting [5]); 0.677 ± 0.025 in the series on Saccharomyces cerevisiae [1] (setting [6]); 0.2 ± 0.0064 in the series with Saccharomyces cerevisiae [1] (setting [7]); 0.221 ± 0.011 in the series with Saccharomyces cerevisiae [1] (setting [8]). Further, the protein stability index in the series on Saccharomyces cerevisiae [1] (setting [9]) stood at 0.377 ± 0.013; in the series on Saccharomyces cerevisiae [2], 0.312 ± 0.013.
Take VCCSILFSAFLV: the protein stability index in the series on Saccharomyces cerevisiae [1] (setting [3]) came out at 0.614 ± 0.088; with Saccharomyces cerevisiae [1] (setting [4]), 0.6552 ± 0.0051; in the series on Saccharomyces cerevisiae [1] (setting [5]), 0.532 ± 0.019; in the series with Saccharomyces cerevisiae [1] (setting [6]) it was 0.653 ± 0.001; in the series with Saccharomyces cerevisiae [1] (setting [7]) it was 0.4 ± 0.024; in the series with Saccharomyces cerevisiae [1] (setting [8]), 0.4 ± 0.012. For the same sequence, the protein stability index in the series on Saccharomyces cerevisiae [1] (setting [9]) was found to be 0.549 ± 0.013; in the series on Saccharomyces cerevisiae [2], 0.475 ± 0.041.
Consider VCDPWVFIRCLV, for which the protein stability index was determined as 0.418 ± 0.015 in the series on Saccharomyces cerevisiae [1] (setting [3]); 0.57354 ± 0.00022 in the series with Saccharomyces cerevisiae [1] (setting [4]); 0.418 ± 0.031 in the series with Saccharomyces cerevisiae [1] (setting [5]); 0.6025 ± 0.0034 in the series on Saccharomyces cerevisiae [1] (setting [6]); 0.11 ± 0.0075 in the series on Saccharomyces cerevisiae [1] (setting [7]); 0.118 ± 0.032 with Saccharomyces cerevisiae [1] (setting [8]). Also, the protein stability index in the series on Saccharomyces cerevisiae [1] (setting [9]) came out at 0.104 ± 0.018; in the series with Saccharomyces cerevisiae [2], 0.234 ± 0.1.
VCLVAGVFFCLL: the protein stability index in the series with Saccharomyces cerevisiae [1] (setting [3]) turned out to be 0.5 ± 0.018; in the series on Saccharomyces cerevisiae [1] (setting [4]), 0.587 ± 0.025; in the series with Saccharomyces cerevisiae [1] (setting [5]), 0.44 ± 0.018; with Saccharomyces cerevisiae [1] (setting [6]), 0.638 ± 0.021; with Saccharomyces cerevisiae [1] (setting [7]), 0.422 ± 0.017; in the series on Saccharomyces cerevisiae [1] (setting [8]) it was 0.449 ± 0.014. The protein stability index in the series on Saccharomyces cerevisiae [1] (setting [9]) was 0.575 ± 0.013; with Saccharomyces cerevisiae [2] it was 0.629 ± 0.24.
In the case of VCVAVCFVMCGG, the protein stability index in the series on Saccharomyces cerevisiae [1] (setting [3]) came out at 0.36 ± 0.022; with Saccharomyces cerevisiae [1] (setting [4]), 0.457 ± 0.023; with Saccharomyces cerevisiae [1] (setting [5]), 0.324 ± 0.023; in the series on Saccharomyces cerevisiae [1] (setting [6]), 0.499 ± 0.018; in the series on Saccharomyces cerevisiae [1] (setting [7]), 0.276 ± 0.0083; with Saccharomyces cerevisiae [1] (setting [8]), 0.305 ± 0.0087. Further, the protein stability index was found to be 0.464 ± 0.03 in the series on Saccharomyces cerevisiae [1] (setting [9]) and 0.3721 ± 0.0011 with Saccharomyces cerevisiae [2].
Take VCVWVDILAFCS: the protein stability index in the series on Saccharomyces cerevisiae [1] (setting [3]) was 0.0795 ± 0.016; in the series on Saccharomyces cerevisiae [1] (setting [4]) it was 0.245 ± 0.097; in the series on Saccharomyces cerevisiae [1] (setting [5]), 0.183 ± 0.026; with Saccharomyces cerevisiae [1] (setting [6]) it was 0.278 ± 0.0048; in the series with Saccharomyces cerevisiae [1] (setting [7]) it was 0.147 ± 0.019; with Saccharomyces cerevisiae [1] (setting [8]), 0.174 ± 0.019. For the same sequence, the protein stability index is 0.252 ± 0.018 with Saccharomyces cerevisiae [1] (setting [9]) and 0.227 ± 0.05 in the series on Saccharomyces cerevisiae [2].
Take VDVWRWRGLRVG: the protein stability index worked out at 0.635 ± 0.029 with Saccharomyces cerevisiae [1] (setting [3]); 0.73743 ± 0.00065 in the series with Saccharomyces cerevisiae [1] (setting [4]); 0.61 ± 0.013 in the series with Saccharomyces cerevisiae [1] (setting [5]); 0.7528 ± 0.00093 with Saccharomyces cerevisiae [1] (setting [6]); 0.3592 ± 0.0023 in the series with Saccharomyces cerevisiae [1] (setting [7]); 0.414 ± 0.031 with Saccharomyces cerevisiae [1] (setting [8]). In addition, the protein stability index in the series on Saccharomyces cerevisiae [1] (setting [9]) was 0.599 ± 0.0082; in the series with Saccharomyces cerevisiae [2] it was 0.555 ± 0.11.
Consider VFAWSLYLRWAW, for which the protein stability index is 0.2813 ± 0.0012 in the series with Saccharomyces cerevisiae [1] (setting [3]); 0.287 ± 0.0065 in the series on Saccharomyces cerevisiae [1] (setting [4]); 0.362 ± 0.025 in the series on Saccharomyces cerevisiae [1] (setting [5]); 0.411 ± 0.011 in the series on Saccharomyces cerevisiae [1] (setting [6]); 0.481 ± 0.02 in the series with Saccharomyces cerevisiae [1] (setting [7]); 0.357 ± 0.017 in the series on Saccharomyces cerevisiae [1] (setting [8]). For the same sequence, the protein stability index in the series on Saccharomyces cerevisiae [1] (setting [9]) was found to be 0.384 ± 0.0076; in the series with Saccharomyces cerevisiae [2], 0.489 ± 0.015.
